The assay addresses recombinant wild-type human alpha-synuclein (human) (UniProt P37840). As to the kind of experiment: cell-based or functional assay.

The record followed here is patent publication US20080300206A1.

Polo like kinase 2 (PLK2), sequence (Q9NYY3 whole entry): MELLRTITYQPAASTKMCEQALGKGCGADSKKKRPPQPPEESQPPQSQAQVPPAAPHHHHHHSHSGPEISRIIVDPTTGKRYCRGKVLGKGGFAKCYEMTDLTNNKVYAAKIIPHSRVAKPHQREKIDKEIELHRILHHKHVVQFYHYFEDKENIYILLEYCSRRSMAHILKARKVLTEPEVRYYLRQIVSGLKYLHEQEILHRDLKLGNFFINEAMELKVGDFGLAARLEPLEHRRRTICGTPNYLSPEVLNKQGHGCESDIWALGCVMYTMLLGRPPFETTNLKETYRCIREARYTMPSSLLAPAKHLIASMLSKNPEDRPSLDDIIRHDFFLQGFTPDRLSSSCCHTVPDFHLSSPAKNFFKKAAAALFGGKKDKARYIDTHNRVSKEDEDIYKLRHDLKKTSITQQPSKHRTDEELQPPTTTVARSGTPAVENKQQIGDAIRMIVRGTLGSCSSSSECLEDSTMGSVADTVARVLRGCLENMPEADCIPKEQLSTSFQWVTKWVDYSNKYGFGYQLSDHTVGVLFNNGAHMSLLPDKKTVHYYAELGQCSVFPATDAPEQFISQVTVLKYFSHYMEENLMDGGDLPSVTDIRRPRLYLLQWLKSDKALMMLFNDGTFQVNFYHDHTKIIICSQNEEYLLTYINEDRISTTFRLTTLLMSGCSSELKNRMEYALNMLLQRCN
G protein-coupled receptor kinase 6 (GRK6), sequence (P43250 whole entry): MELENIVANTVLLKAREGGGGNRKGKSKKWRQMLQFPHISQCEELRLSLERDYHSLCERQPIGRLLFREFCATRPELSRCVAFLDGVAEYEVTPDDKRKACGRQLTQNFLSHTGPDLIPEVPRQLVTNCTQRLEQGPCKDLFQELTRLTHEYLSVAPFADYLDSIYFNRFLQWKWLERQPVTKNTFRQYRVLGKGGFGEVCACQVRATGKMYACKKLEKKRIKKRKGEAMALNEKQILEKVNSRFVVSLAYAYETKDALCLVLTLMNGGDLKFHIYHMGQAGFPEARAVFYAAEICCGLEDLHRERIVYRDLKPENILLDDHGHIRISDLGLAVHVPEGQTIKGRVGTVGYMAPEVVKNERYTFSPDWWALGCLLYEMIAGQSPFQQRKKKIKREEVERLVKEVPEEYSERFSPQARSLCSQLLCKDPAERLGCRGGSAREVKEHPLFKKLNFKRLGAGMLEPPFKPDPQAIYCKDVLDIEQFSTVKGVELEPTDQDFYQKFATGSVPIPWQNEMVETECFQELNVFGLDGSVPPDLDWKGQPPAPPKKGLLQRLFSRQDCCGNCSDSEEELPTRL
Aortic preferentially expressed gene 1 (APEG1), sequence (Q15772 whole entry): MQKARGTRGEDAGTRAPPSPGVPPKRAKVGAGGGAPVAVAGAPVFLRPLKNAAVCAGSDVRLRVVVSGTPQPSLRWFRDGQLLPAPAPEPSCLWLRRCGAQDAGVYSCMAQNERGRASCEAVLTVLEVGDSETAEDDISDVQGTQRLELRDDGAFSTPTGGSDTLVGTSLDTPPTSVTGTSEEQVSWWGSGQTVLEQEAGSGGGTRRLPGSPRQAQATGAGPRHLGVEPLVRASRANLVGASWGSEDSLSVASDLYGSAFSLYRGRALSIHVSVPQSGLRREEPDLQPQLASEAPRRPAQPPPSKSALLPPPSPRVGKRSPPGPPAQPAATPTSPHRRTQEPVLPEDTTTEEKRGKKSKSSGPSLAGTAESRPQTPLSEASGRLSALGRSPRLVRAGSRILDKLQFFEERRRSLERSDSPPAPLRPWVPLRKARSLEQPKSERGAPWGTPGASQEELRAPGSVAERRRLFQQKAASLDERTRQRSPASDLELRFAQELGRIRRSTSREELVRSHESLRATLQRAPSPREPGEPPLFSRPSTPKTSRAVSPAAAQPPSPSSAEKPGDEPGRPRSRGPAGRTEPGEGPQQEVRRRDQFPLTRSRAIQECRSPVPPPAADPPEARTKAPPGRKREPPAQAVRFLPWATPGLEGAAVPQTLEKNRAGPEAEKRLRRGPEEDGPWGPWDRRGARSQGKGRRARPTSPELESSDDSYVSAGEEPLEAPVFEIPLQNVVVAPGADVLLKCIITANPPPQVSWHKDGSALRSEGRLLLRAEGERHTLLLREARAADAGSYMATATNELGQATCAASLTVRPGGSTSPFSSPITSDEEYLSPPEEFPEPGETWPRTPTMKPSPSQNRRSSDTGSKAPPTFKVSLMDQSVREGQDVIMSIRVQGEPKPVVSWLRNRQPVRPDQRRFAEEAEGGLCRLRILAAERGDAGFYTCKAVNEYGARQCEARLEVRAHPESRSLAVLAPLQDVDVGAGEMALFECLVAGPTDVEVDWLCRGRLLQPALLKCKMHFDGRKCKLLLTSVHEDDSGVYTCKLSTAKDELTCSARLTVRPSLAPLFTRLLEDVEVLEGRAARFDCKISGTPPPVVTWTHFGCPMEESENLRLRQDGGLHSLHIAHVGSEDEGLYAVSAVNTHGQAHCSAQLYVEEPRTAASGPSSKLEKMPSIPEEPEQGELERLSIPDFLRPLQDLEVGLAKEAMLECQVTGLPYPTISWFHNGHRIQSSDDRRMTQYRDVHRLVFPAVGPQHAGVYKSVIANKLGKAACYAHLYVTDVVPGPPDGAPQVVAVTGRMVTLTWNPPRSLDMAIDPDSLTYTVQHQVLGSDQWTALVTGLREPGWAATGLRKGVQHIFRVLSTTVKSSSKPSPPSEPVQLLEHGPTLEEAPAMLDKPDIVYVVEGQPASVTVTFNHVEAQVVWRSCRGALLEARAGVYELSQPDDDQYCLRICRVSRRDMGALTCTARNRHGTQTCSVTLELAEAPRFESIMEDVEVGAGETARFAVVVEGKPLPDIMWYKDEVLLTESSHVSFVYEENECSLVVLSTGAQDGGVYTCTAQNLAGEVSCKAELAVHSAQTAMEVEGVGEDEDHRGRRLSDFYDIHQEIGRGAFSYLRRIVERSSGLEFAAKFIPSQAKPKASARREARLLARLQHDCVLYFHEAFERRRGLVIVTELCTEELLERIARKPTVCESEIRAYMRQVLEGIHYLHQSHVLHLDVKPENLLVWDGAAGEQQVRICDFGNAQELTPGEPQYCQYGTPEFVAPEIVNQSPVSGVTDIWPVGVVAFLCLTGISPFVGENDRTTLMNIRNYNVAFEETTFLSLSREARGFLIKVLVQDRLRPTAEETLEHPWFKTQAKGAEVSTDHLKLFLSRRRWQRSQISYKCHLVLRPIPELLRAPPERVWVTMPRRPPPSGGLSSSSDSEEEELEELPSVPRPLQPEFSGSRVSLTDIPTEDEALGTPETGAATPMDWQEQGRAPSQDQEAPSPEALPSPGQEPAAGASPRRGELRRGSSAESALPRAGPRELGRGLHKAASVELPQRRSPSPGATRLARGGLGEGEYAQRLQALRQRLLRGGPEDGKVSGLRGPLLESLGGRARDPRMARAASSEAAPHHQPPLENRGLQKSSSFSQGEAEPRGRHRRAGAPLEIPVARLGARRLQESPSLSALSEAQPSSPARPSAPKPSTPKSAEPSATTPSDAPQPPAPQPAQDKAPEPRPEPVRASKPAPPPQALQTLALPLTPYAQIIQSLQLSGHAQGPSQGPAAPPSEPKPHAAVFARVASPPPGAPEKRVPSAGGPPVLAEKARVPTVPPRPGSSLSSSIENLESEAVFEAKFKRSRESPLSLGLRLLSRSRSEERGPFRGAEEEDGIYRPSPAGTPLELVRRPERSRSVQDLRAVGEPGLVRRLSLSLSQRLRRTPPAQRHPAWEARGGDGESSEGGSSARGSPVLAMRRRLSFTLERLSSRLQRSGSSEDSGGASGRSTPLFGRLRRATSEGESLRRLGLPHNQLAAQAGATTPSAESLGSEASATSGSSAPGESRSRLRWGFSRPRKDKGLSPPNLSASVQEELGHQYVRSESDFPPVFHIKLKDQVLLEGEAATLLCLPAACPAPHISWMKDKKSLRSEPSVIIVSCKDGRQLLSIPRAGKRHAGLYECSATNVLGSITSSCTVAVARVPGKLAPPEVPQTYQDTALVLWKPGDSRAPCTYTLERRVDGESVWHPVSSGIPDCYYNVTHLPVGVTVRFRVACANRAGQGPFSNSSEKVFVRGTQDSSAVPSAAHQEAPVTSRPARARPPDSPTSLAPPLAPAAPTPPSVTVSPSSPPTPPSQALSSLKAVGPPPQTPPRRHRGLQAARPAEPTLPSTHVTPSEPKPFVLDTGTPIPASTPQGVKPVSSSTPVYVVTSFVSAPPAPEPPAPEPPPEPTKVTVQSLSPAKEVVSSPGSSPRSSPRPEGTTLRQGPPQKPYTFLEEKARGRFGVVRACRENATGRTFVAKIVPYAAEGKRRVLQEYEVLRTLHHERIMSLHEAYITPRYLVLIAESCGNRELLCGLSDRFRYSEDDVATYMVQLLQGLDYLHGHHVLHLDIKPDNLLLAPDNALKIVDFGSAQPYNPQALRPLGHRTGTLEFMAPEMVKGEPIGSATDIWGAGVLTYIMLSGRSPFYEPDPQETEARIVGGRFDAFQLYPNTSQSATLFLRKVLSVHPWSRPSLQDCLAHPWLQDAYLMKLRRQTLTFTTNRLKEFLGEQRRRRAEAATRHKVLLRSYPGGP
CDC7 cell division cycle 7-like 1 (CDC7L1), sequence (O00311 whole entry): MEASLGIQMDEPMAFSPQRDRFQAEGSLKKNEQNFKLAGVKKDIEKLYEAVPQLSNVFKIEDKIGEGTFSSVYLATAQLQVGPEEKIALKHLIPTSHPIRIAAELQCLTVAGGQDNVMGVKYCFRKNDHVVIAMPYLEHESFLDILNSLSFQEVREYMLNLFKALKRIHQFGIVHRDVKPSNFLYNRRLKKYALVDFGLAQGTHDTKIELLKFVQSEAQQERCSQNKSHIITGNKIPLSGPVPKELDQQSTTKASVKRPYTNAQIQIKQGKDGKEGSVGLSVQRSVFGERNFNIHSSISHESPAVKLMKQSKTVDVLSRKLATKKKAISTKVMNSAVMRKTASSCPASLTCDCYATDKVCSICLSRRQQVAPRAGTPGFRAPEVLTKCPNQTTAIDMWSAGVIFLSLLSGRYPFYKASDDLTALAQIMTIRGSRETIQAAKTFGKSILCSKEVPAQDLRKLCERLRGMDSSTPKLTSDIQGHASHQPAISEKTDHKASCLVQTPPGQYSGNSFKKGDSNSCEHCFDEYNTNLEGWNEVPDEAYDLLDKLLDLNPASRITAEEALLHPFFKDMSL

For the substance “Aortic preferentially expressed gene 1 (APEG1) (from UniProt Q15772 1-3267) (enzyme)”, the percentage of phospho-synuclein, ELISA, PEAK-Syn cells transfected with kinase cDNA was determined as 8.9%.

Take “CDC7 cell division cycle 7-like 1 (CDC7L1) (from UniProt O00311 1-574) (enzyme)”: the percentage of phospho-synuclein, ELISA, PEAK-Syn cells transfected with kinase cDNA is 8.9%. As to “G protein-coupled receptor kinase 6 (GRK6) (from UniProt P43250 1-576) (enzyme)”, the fold increase of phospho-synuclein, HEK-synuclein cells was determined as 2 fold and the percent phospho-synuclein, ELISA, cells transfected with GPRK6 cDNA was determined as 18.9%. For the substance “Polo like kinase 2 (PLK2) (from UniProt Q9NYY3 1-685) (enzyme)”, the fold increase of percent phospho-synuclein, cells transfected with PLK2 cDNA is 4 fold; the fold increase of phospho-synuclein over untransfected cells, ELISA, 293-synuclein cells was 4.3 fold; the percent phospho-synuclein, ELISA, cells transfected with PLK2 cDNA was 33.2%. In the case of “Protein kinase, cGMP-dependent, regulatory, Type I (PRKG1) (from UniProt Q13976 2-671) (enzyme)”, the percentage of phospho-synuclein, ELISA, PEAK-Syn cells transfected with kinase cDNA was found to be 8.9%.
